The target in assay [1] is T1, human PD-1 on engineered CHO-S cells (W305-CHO-S.hPro1.C6) (human, UniProt Q15116 25-288).
T1 construct: whole, on cells; also called human PD-1 engineered cells; PD-1+ cells
The experiment in a line: FACS on human PD-1 engineered cells. As to the method: (§1) Engineered human PD-1 expressing cells W305-CHO-S.hPro1.C6 were seeded at 1×10⁵ cells/well in U-bottom 96-well plates (COSTAR 3799). Antibodies with 3.16-fold titration in 1% BSA DPBS from 200 nM to 0.002 nM were added to the cells. The plates were incubated at 4° C. for 1 hour. After wash, […] 1:125 diluted PE-labeled goat anti-human antibody (Jackson 109-115-098) was added to each well and the plates were incubated at 4° C. for 1 hour. The binding of the antibodies onto the cells was tested by flow cytometry and the mean fluorescence intensity (MFI) was analyzed by FlowJo.

In assay [2] the target is T1, human PD-1 on engineered CHO-S cells …. Briefly: FACS on human PD-1 engineered cells. As to the method: as §1
The source holds these as a separate data set.

Assay [3] has the same target. Briefly: FACS competition: antibody titrated against human PD-L1 binding to PD-1; falling curve, half-maximal value labelled EC50 on the sheet. The method, then: (§2) In order to test whether the bispecific antibodies could block hPD-L1 binding to hPD-1 protein, a competitive FACS was conducted. […] Plates were incubated at 4° C. for 1 hour. After wash, the binding of W315-hPro1.ECD.mFc to cell expressive human PD-1 was detected by FITC-labeled goat anti-mouse antibody (abcam 98716 1:125). The competition binding of antibodies to the cells was tested by flow cytometry and the mean fluorescence intensity (MFI) was analyzed by FlowJo.

The target is the same in assay [4]. The assay is described as above. As to the method:
as §2
The source holds these as a separate data set.

In assay [5] the target is T2, human PD-1 ECD mouse Fc fusion (W305-hPro1.ECD.mFc) (human, UniProt Q15116 25-170).
T2 construct: extracellular domain; In-house protein; also called hPD-1-ECD; human PD-1 coated on the plate
T2 sequence (Q15116 25-170): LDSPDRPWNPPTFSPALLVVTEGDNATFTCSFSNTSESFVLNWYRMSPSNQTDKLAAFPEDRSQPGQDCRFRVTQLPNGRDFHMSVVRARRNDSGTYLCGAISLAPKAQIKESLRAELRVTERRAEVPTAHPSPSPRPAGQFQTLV
The experiment in a line: dual-binding ELISA: human PD-1 ECD coated, antibody titrated, bound antibody detected with biotinylated human CTLA-4 ECD and streptavidin-HRP. As to the method:
In order to test whether the bispecific antibodies could bind to both hPD-1 and hCTLA-4, an ELISA assay was developed as below. A 96-well ELISA plate (Nunc MaxiSorp, ThermoFisher) was coated overnight at 4° C. with 0.5 μg/ml antigen-1 (hPD-1-ECD, W305-hPro1.ECD.mFc) in carbonate-bicarbonate buffer. After a 1 hour blocking step with 2% (w/v) bovine serum albumin (Pierce) dissolved in PBS, serial dilutions of the different PD-1×CTLA-4 bispecific antibodies in PBS containing 2% BSA PBS were incubated on the plates for 1 hour at room temperature. Following the incubation, plates were washed three times with 300 μL per well of PBS containing 0.5% (v/v) Tween 20. […] After washing the plates three times, Streptavidin-HRP (Lifetechnologies, #SNN1004) (1:20000 diluted) was added and incubated on the plates for 1 hour at room temperature. After washing six times with […] per well of PBS containing 0.5% (v/v) Tween 20, 100 μL tetramethylbenzidine (TMB) substrate was added for the detection per well. The reaction was stopped after approximately 5 minutes through the addition of […] per well of 2 M HCl. The absorbance of the wells was measured at 450 nm with a multiwall plate reader (SpectraMax® M5e).
In general terms: ELISA stands for enzyme-linked immunosorbent assay.

Assay [6] addresses T3, human CD19 on CD19+ B cell lines (Ramos, Raji) (human, UniProt P15391 20-556).
T3 sequence (looked up): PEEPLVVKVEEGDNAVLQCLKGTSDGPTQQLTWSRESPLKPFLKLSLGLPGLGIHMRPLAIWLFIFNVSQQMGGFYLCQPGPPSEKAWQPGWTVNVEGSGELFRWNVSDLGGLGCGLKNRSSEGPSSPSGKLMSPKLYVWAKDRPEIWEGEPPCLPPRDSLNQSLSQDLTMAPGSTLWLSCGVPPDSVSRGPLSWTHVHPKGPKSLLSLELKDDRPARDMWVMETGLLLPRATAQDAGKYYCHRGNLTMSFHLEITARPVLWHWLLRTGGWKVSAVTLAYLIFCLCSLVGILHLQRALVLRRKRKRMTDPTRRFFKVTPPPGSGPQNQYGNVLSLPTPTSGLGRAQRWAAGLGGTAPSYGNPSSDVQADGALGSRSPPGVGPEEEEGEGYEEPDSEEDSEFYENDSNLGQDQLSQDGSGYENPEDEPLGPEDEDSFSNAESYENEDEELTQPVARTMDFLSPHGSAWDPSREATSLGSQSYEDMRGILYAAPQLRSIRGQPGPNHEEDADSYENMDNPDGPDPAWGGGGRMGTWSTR
Briefly: cell-based or functional assay.

Assay [7] concerns the target T3, human CD19 on CD19+ B cell lines …. Briefly: flow cytometry on Ramos cells. In general terms: Flow cytometry measures light scatter and fluorescence of single cells or particles in a stream.
Assay [8] addresses T4, human CD3 on CD3+ Jurkat cells (human, UniProt P07766 23-207; P09693 23-182; P04234 22-171).
T4 construct: whole, on cells; also called CD3 positive Jurkat cells
Briefly: flow cytometry on Jurkat cells.

Assay [9] concerns the target T3, human CD19 on CD19+ B cell lines …. The experiment in a line: FACS on CD19+ Ramos cells.

Where two headings read alike, the source gives them in different places.

T1 sequence (Q15116 25-288, change not shown): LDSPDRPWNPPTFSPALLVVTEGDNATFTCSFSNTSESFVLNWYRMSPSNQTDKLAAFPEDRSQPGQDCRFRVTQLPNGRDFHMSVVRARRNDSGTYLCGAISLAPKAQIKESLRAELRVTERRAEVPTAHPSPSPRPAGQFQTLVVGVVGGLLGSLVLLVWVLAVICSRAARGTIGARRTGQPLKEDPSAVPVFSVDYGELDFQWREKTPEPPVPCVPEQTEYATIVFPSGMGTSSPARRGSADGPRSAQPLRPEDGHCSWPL
T4 sequence (P07766 23-207, chain 1 of 3): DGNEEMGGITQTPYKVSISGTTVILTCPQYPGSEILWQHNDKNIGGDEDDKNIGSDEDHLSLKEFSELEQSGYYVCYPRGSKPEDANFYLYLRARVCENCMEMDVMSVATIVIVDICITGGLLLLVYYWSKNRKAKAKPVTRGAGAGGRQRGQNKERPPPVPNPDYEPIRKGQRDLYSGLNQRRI
T4 sequence (P09693 23-182, chain 2 of 3): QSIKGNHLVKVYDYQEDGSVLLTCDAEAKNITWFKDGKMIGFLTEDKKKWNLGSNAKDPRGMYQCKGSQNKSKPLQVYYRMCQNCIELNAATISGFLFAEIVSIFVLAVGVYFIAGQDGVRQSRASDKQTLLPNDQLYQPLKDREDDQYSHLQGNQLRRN
T4 sequence (P04234 22-171, chain 3 of 3): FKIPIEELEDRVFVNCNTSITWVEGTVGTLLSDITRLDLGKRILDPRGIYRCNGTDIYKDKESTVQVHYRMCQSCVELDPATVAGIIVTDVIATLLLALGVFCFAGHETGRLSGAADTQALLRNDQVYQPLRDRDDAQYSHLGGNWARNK

B1: U6T1.G25R.IgG4, bispecific anti-PD-1 x CTLA-4 (as listed in Example 15) (bispecific antibody)
heavy: EVQLLESGGGLVQPGGSLRLSCAASGFTFSSHAMSWVRQAPGKGLEWVSTITGGGGSIYYADSVKGRFTISRDNSKNTLYLQMNSLRAEDTAVYYCAKNRAGEGYFDYWGQGTLVTVSSASTKGPSVFPLAPCSRSTSESTAALGCLVKDYFPEPVTVSWNSGALTSGVHTFPAVLQSSGLYSLSSVVTVPSSSLGTKTYTCNVDHKPSNTKVDKRVGGGGSGGGGSQVQLVESGGGVVQPGRSLRLSCAASGFTFSSYTMHWVRQAPGKGLEWVTFISYDGNNKYYADSVKGRFTISRDNSKNTLYLQMNSLRAEDTAIYYCARTGWLGPFDYWGQGTLVTVLEDLKNVFPPEVAVFEPSEAEISHTQKATLVCLATGFYPDHVELSWWVNGKEVHSGVCTDPQPLKEQPALQDSRYALSSRLRVSATFWQNPRNHFRCQVQFYGLSENDEWTQDRAKPVTQIVSAEAWGRYGPPCPPCPAPEFLGGPSVFLFPPKPKDTLMISRTPEVTCVVVDVSQEDPEVQFNWYVDGVEVHNAKTKPREEQFNSTYRVVSVLTVLHQDWLNGKEYKCKVSNKGLPSSIEKTISKAKGQPREPQVYTLPPSQEEMTKNQVSLTCLVKGFYPSDIAVEWESNGQPENNYKTTPPVLDSDGSFFLYSRLTVDKSRWQEGNVFSCSVMHEALHNHYTQKSLSLSLGK
light 1: SYELTQPLSVSVALGQTARITCGGDNIGNKDVHWYQQKPGQAPVLVIYRDSNRPSGIPEGFSGSNSGNTATLTISRAQAGDEADYYCQVWDSIWVFGGGTKLTVLGQPKAAPSVTLFPPSSEELQANKATLVCLISDFYPGAVTVAWKADSSPVKAGVETTTPSKQSNNKYAASSYLSLTPEQWKSHKSYSCQVTHEGSTVEKTVAPTECS
light 2: not shown
notes: kept apart; also called U6T1 in G25R format
As a reminder, the EC50 is the concentration giving half of the maximal effect. Low values mean an effect from little substance, high ones a need for much substance. What is called IC50 is the midpoint of a concentration-inhibition curve. Higher therefore signals weaker potency in that assay. On to B1, for which the figures for the EC50 in assay [1], in assay [2] and in assay [5] were 1.81 nM, 1.42 nM and 0.107 nM, respectively. The IC50 in [3] is 1.92 nM; in assay [4], 1.67 nM.

B2: W3438-T3U4.F16-1.uIgG4.SP, bispecific trivalent anti-CD3 x CD19 (bispecific antibody)
heavy 1: QVQLVQSGAEVKKPGSSVKVSCKASGFAFTDYYIHWVRQAPGQGLEWMGWISPGNVNTKYNENFKGRVTITADKSTSTAYMELSSLRSEDTAVYYCARDGYSLYYFDYWGQGTLVTVLEDLKNVFPPEVAVFEPSEAEISHTQKATLVCLATGFYPDHVELSWWVNGKEVHSGVCTDPQPLKEQPALQDSRYALSSRLRVSATFWQNPRNHFRCQVQFYGLSENDEWTQDRAKPVTQIVSAEAWGRYGPPCPPCPAPEFLGGPSVFLFPPKPKDTLMISRTPEVTCVVVDVSQEDPEVQFNWYVDGVEVHNAKTKPREEQFNSTYRVVSVLTVLHQDWLNGKEYKCKVSNKGLPSSIEKTISKAKGQPREPQVYTLPPCQEEMTKNQVSLWCLVKGFYPSDIAVEWESNGQPENNYKTTPPVLDSDGSFFLYSRLTVDKSRWQEGNVFSCSVMHEALHNHYTQKSLSLSLGK
light 1: DIVMTQSPDSLAVSLGERATINCKSSQSLLNSRTRKNYLAWYQQKPGQPPKLLIYWASTRQSGVPDRFSGSGSGTDFTLTISSLQAEDVAVYYCTQSHTLRTFGGGTKVEIKPDIQNPDPAVYQLRDSKSSDKSVCLFTDFDSQTQVSQSKDSDVYITDKCVLDMRSMDFKSNSAVAWSQKSDFACANAFQNSIIPEDTFFPSPESS
heavy 2: QMQLVQSGPEVKKPGTSVKVSCKASGYAFTSYNMYWVRQARGQRLEWIGYIDPYNGDTTYNQKFKGRVTITRDMSTSTAYMELSSLRSEDTAVYYCLTTAYAMDYWGQGTLVTVSSASTKGPSVFPLAPCSRSTSESTAALGCLVKDYFPEPVTVSWNSGALTSGVHTFPAVLQSSGLYSLSSVVTVPSSSLGTKTYTCNVDHKPSNTKVDKRVGGGGSGGGGSQMQLVQSGPEVKKPGTSVKVSCKASGYAFTSYNMYWVRQARGQRLEWIGYIDPYNGDTTYNQKFKGRVTITRDMSTSTAYMELSSLRSEDTAVYYCLTTAYAMDYWGQGTLVTVSSASTKGPSVFPLAPCSRSTSESTAALGCLVKDYFPEPVTVSWNSGALTSGVHTFPAVLQSSGLYSLSSVVTVPSSSLGTKTYTCNVDHKPSNTKVDKRVESKYGPPCPPCPAPEFLGGPSVFLFPPKPKDTLMISRTPEVTCVVVDVSQEDPEVQFNWYVDGVEVHNAKTKPREEQFNSTYRVVSVLTVLHQDWLNGKEYKCKVSNKGLPSSIEKTISKAKGQPREPQVCTLPPSQEEMTKNQVSLSCAVKGFYPSDIAVEWESNGQPENNYKTTPPVLDSDGSFFLVSRLTVDKSRWQEGNVFSCSVMHEALHNHYTQKSLSLSLGK
light 2: DIQLTQSPSFLSASVGDRVTITCSASSTVNYMHWYQQKPGKAPKLLIYSTSNLASGVPSRFSGSGSGTEFTLTISSLQPEDFATYYCHQWSSYPYTFGQGTKLEIKRTVAAPSVFIFPPSDEQLKSGTASVVCLLNNFYPREAKVQWKVDNALQSGNSQESVTEQDSKDSTYSLSSTLTLSKADYEKHKVYACEVTHQGLSSPVTKSFNRGEC
notes: also called F16-Design_2-QQQQ (IgG4)
In general, EC50 (read off the curve) refers to the concentration giving half of the maximal effect. As to B2, in assay [6], the “EC50 of T-cell engaged malignant B cell killing” value amounted to 0.0055 nM; the “EC50 of cell lysis, CD8+ T cells and Raji cells, 4 hours” value is 3.2 nM. The EC50 in assay [7] was 1.8 nM. This molecule also displayed an EC50 in assay [8] of 19.3 nM. Also, in assay [9], the “EC50 (read off the curve)” value was in the range of 1 to 2 nM.

Source of the values: patent US20240124586A1 (WUXI BIOLOGICS IRELAND, published 2024).
